According to patent US9201073B2, “Methods and compositions for enhancing proteasome activity” (President and Fellows of Harvard College, priority 2007, dated 2015):
Where a chain is given by its changes, count along the chain named. Names and notes keep the numbering of the source.

Experiments:
proteasomes = molecular target: T1, proteasomes (Saccharomyces cerevisiae, UniProt P30656+P43588); assay: Proteasome-dependent hydrolysis of suc-LLVY-AMC; assay type: biochemical, yeast; conditions: o-PA treatment
T1 construct: A previously described procedure for purification of the proteasome; TEV-ProA (TEV site + protein A), chromosomally integrated (C); made in house
Excerpt: FIG. 1E is a graph depicting proteasome-dependent hydrolysis of suc-LLVY-AMC (SEQ ID NO: 1), a ubiquitin-independent fluorogenic proteasome substrate. Error bars reflect standard deviations.
The next studies were designed to determine whether the observed difference in cyclin B degradation was due specifically to Ubp6. Proteasomes were examined by Coomassie blue staining (FIG. 1D) and native gel electrophoresis, and no evidence for either an unexpected compositional difference or a gross structural abnormality in mutant proteasomes was found (see also Guterman and Glickman. (2004). Complementary roles for Rpn11 and Ubp6 in deubiquitination and proteolysis by the proteasome. J. Biol. Chem. 279, 1729-1738).

ubp6Δ proteasomes [1] = molecular target: T2, ubp6Δ proteasomes (Saccharomyces cerevisiae, UniProt P30656+P43588); assay: In vitro ub-cyclin B deubiquitination/degradation assay with purified yeast proteasomes; assay type: biochemical; conditions: for inhibition of cyclin B degradation: ubp6Δ proteasomes 135 nM, recombinant Ubp6 or Usp14 species 540 nM, Ubl and Ubl-MBP 1.35 μM, preincubated 5 min, immunoblot
T2 construct: proteasomes purified from ubp6Δ mutants; TEV-ProA (TEV site + protein A), chromosomally integrated (C); made in house
Description: Proteasomes (135 nM) were incubated with ub-cyclin Bin the presence of 1 mM ATP and buffer (50 mM Tris [pH 7.51, 1 mM EDTA, 5 mM MgCl2) for the indicated times. Reactions were terminated by the addition of 5×SDS Laemmli loading buffer (Leggett, et al. (2002). Multiple associated proteins regulate proteasome structure and function. Mol. Cell. 10, 495-507) and boiled for 5 min. Where indicated, recombinant, purified Ubp6 or Usp14 species (540 nM) were preincubated with proteasomes for 5 min prior to the reaction. […] Unless otherwise noted, immunoblots were visualized with anti-cyclin B1 polyclonal antibodies. Polyclonal antibodies recognizing Ubp6, Rpn5, Rpn12, and ubiquitin were used as indicated. Ub-cyclin B was added in molar excess over proteasome, generally on the order of 25-fold, except for FIGS. 4C, 6A and 6B, where the substrate:enzyme ratio was increased by a factor of five.
In the experiments of FIGS. 1, 4 (except FIG. 4C), and 6C, time points were sampled after the preparation of a single reaction mixture. The zero time points therefore reflect a lag which represents the amount of time required to sample the first time point after having prepared the reaction mixture. […] In the experiments of FIGS. 2, 4C, and 6 (except 6C), each time point was carried out as an independent reaction. The zero time points were prepared in the presence of 5×LLB, and accordingly, no processing could occur before time zero.
Ubiquitination of cyclin B was carried out. Briefly, for each 30 μl reaction, Anaphase Promoting Complex (APC) was immunopurified from 600 μl of mitotic Xenopus egg extract with 12 μg of anti-Cdc27 antibodies (AF3.1, Santa Cruz Biotechnologies, Santa Cruz, Calif.) bound to 30 μl of Affiprep Protein A beads (Bio-Rad, Hercules, Calif.). Beads were washed three times with XB high salt (10 mM potassium HEPES pH 7.7, 500 mM KCl, 0.1 mM CaCl2, 1 mM MgCl2), two times with XB (same but with 100 mM KCl), and then three times into the reaction buffer (20 mM Tris pH 7.5, 100 mM KCl, 2.5 mM MgCl2, 2 mM ATP). Ubiquitination reactions contained immunoprecipitated APC on 30 μl of beads, and 30 μl of a mix containing recombinant MBP-human E1 at 200 μg/ml, histidine-tagged Ubc4 at 66 μg/ml, ubiquitin at 1.25 mg/ml, and 50 μg/ml of histidine-tagged cyclin B1/cdc2 complex expressed in baculovirus. Reactions were incubated for 90 minutes at 22° C. with agitation on a shaker at 1,000 RPM. Reaction supernatants were combined with the eluate from the wash of beads with 20 μl of reaction buffer. Reactions were either used fresh after preparation or frozen at −80° C. until use with purified proteasomes.

Ubp6 = molecular target: T3, Ubp6 (Saccharomyces cerevisiae, UniProt P43593); assay: Ub-AMC hydrolysis by Ubp6 treated with ubiquitin-vinyl sulfone; assay type: biochemical, yeast; conditions: Ub-VS 2.5 μM; Ub-AMC 0.5 μM
T3 construct: GST (N, cleaved yes); made in house; host or cells: bacteria (pGEX-4T-1, plasmid pDL74)
T3 sequence (P43593 1-499): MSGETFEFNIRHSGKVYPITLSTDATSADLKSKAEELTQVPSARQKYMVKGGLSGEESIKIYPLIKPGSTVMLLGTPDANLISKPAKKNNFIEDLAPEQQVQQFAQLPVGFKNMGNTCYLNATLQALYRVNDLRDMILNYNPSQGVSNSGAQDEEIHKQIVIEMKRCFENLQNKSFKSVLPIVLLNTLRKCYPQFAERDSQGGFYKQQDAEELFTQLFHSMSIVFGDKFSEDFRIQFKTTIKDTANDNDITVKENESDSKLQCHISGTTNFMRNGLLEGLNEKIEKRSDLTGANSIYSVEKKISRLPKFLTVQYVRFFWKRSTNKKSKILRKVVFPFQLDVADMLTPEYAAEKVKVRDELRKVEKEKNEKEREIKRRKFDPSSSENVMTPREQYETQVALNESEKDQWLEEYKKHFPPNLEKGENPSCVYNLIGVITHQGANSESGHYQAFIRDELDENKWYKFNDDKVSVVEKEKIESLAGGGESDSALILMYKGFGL
Description: FIG. 9A depicts the result of an in vitro ub-cyclin B assay carried out with ubp6Δ proteasomes (135 nM) supplemented with wild-type Ubp6 (540 nM) and ubiquitinvinyl sulfone (2.5 μM), as indicated. The lower panel is anti-Ubp6 immunoblot showing modification of Ubp6 by Ub-VS. Ubp6 was present in four-fold molar excess over proteasome, and thus only a fraction of Ubp6 protein was modified.
FIG. 9B depicts the results of Ub-AMC (0.5 μM) hydroylsis assay.
As an alternate approach to assay non-catalytic inhibition, ubiquitin-vinyl sulfone (Ub-VS), an irreversible active site inhibitor of Ubp6, was used. Residual Ub-AMC hyrdolyzing activity in the presence of Ubp6-Ub-VS is at the level of background in this assay. […] Indeed the large excess of substrate over Ubp6 (see Methods described in Example 1) is inconsistent with a model in which Ubp6 inhibits degradation by sequestering substrate. […] Although these functions are distinct, each requires both the Ubl domain and the C-terminal domain. The Ubl domain serves in both cases to target Ubp6 to the proteasome, and that both functions are obligatorily executed on the proteasome.

proteasome = molecular target: T4, proteasome (Saccharomyces cerevisiae, UniProt P30656+P43588); assay: Ub-Cdc34 binding assay (electrophoretic mobility shift of proteasome); set-up: species or system yeast; conditions: proteasome 4 pmoles, ub-Cdc34 8 pmoles, Ubp6-C118A 8 pmoles
T4 construct: A previously described procedure for purification of the proteasome; TEV-ProA (TEV site + protein A), chromosomally integrated (C); made in house
Description: Binding of ubiquitinated-Cdc34 (8 pmoles) to proteasome (4 pmoles) was carried by native gel electrophoresis followed by overlay of the fluorogenic activity-based probe, suc-LLVY-AMC (SEQ ID NO: 1), as previously described (Elsasser, et al. (2004). Rad23 and Rpn10 serve as alternative ubiquitin receptors for the proteasome. J. Biol. Chem. 279, 26817-26822). Ubp6 or Ubp6-C118A (8 pmoles) were preincubated with proteasomes prior to substrate addition.

ubp6Δ proteasomes [2] = molecular target: T2, ubp6Δ proteasomes; assay: Quantitation of proteasome inhibition by quantitative mass spectrometry of cyclin B; assay type: biochemical, yeast; conditions: 20-minute incubation
Description: A standard substrate degradation assay was carried out, and analyzed in parallel by SDS-PAGE followed by Coomassie blue staining and immunoblot with anti-cyclin B antibody. Immunoblots were used to identify and excise the cyclin B-containing regions of the Coomassie-stained gel, and the lanes were analyzed by mass spectrometry.
To quantify the extent of proteasome inhibition by Ubp6, a method of quantitative mass spectrometry was utilized. After a 20-minute incubation, approximately half of the total cyclin B was degraded by ubp6Δ proteasomes (FIG. 4C).

Ub-AMC = Ub-AMC hydrolyzing activity of purified recombinant Ubp6 species; assay type: biochemical; conditions: purified recombinant enzyme 0.5 μM
Description: FIG. 8 is a graph depicting that the Ubp6-C118A mutant lacks deubiquitinating activity. Ub-AMC hydrolyzing activity of purified recombinant wild-type Ubp6 or Ubp6-C118A (0.5 μM). Ub-AMC, no enzyme control.

[3] = molecular target: T5, RP purified from a ubp6Δ mutant (Saccharomyces cerevisiae, UniProt P43588); assay: Processing of ub-cyclin B by regulatory particle (RP); assay type: biochemical, yeast; conditions: RP 135 nM, four-fold molar excess of Ubp6 species
T5 construct: TEV-ProA (TEV site + protein A), chromosomally integrated (C); made in house
Description: FIGS. 6A and 6B depict the processing of ub-cyclin B by RP (ubp6Δ) in the presence or absence of purified Ubp6. Reactions were visualized by immunoblotting with anti-cyclin B antibody or anti-ubiquitin antibody, as indicated.
FIG. 12 is an illustration depicting the RP-mediated disassembly of Ub-cyclin B conjugates by Ubp6. Proteasome regulatory particle (135 nM) purified from a ubp6Δ strain was combined with a four-fold molar excess of Ubp6, Ubp6-ublΔ, or Ubp6-C118A, and Ub-Cyclin B, and incubated for the indicated times. Reactions were visualized by immunoblot with anti-ubiquitin antibody. *represents a non-ubiquitin immunoreactive band.
A previously described procedure for purification of the proteasome (Leggett, et al. (2002). Multiple associated proteins regulate proteasome structure and function. Mol. Cell. 10, 495-507) was modified by adding 1 mM ATP and 5 mM MgCl2 to all purification buffers, and by washing resins with 100 bed vol. of buffer containing 50 mM NaCl, as opposed to 50 bed vol. of buffer containing 100 mM NaCl. RP was purified in the presence of ATP and MgCl2 as described (Leggett et al., 2002).
Proteasomes (135 nM) were incubated with ub-cyclin Bin the presence of 1 mM ATP and buffer (50 mM Tris [pH 7.51, 1 mM EDTA, 5 mM MgCl2) for the indicated times. […]

c1cnc2c(c1)ccc1cccnc12 [o-PA, o-phenanthroline, reference compound]
LLVY-hydrolysis by proteasomes (proteasomes): no effect | deubiquitination and degradation of cyclin B (ubp6Δ proteasomes [1]; ubp6Δ proteasomes, o-PA 10 mM added 10 min prior to cyclin B): strongly inhibited

ubiquitin-vinyl sulfone [Ub-VS]
catalytic activity of wild-type Ubp6 as measured by Ub-AMC hydrolysis (Ubp6): completely eliminated

B1: Ubp6-C118A: catalytically inactive point mutant of Ubp6 (protein)
chain: T3 sequence (P43593 1-499) with C118A
inhibition of cyclin B degradation (ubp6Δ proteasomes [1]): competent for inhibition | conjugate (ubiquitinated Cdc34) binding to the proteasome (proteasome): comparable conjugate binding | inhibition of degradation (cyclin B) (ubp6Δ proteasomes [2]): approximately 70% | deubiquitinating activity against the model substrate Ub-AMC (Ub-AMC): completely devoid of deubiquitinating activity | processing of ub-cyclin B conjugates by RP [3]: no effect on substrate processing

B2: Ubl: N-terminal ubiquitin-like domain of Ubp6 by itself (protein)
chain: MSGETFEFNIRHSGKVYPITLSTDATSADLKSKAEELTQVPSARQKYMVKGGLSGEESIKIYPLIKPGSTVMLLGTPDANLIS
inhibition of cyclin B degradation (ubp6Δ proteasomes [1]): no effect on cyclin B degradation
